Assays:
Assay in all cases: cell-based or functional assay
TrkA Y490/785F = TrkA Y490/785F (UniProt P04629)
TrkA Y490F = TrkA Y490F (UniProt P04629)
TrkA Y785F = TrkA Y785F (UniProt P04629)
[1] = molecular target: wild-type TrkA, baculovirus-expressed, activated (autophosphorylated) (UniProt P04629)

SHP-1 (enzyme)
Trk tyrosine dephosphorylation on co-expression in insect cells (anti-pTyr blot) (TrkA Y490/785F): 8 fold | Trk tyrosine dephosphorylation on co-expression in insect cells (anti-pTyr blot) (TrkA Y490F): 8 fold | Trk tyrosine dephosphorylation on co-expression in insect cells (anti-pTyr blot) (TrkA Y785F): 8 fold | Trk tyrosine dephosphorylation on co-expression in insect cells (anti-pTyr blot) [1]: 8 fold | dephosphorylation of Trk at Y674/Y675 (phospho-specific anti-Trk antibodies, co-expression in insect cells) [1]: 10 fold

Reference: patent US20020110800A1, “Use of SHP-1 and SHP-2 to detect compounds involved in neuronal survival” (McGill University, priority 1997, published 2002)
